# In article PMC9352680, “A comprehensive thermodynamic model for RNA binding by the Saccharomyces cerevisiae Pumilio protein PUF4”:
# B1: Id_ii_S1_P5E.4_K5.3_C5.2_[C-2G]_H5.3_A5.1_F5.1_T5.2_[T11A] (ssRNA)
# RNA: UCUCUUGUACACUUAUUAAAUCUCUU
# B2: Id_ii_S1_P5E.4_K5.3_C5.2_[C-2G]_H5.3_A5.1_F5.1_T5.2_[A12C] (ssRNA)
# RNA: UCUCUUGUACACUUAUUAUCUCUCUU
# B3: Id_ii_S1_P5E.4_K5.3_C5.2_[C-2G]_H5.3_A5.1_F5.1_T5.2_[A12T] (ssRNA)
# RNA: UCUCUUGUACACUUAUUAUUUCUCUU
# B4: Id_ii_S1_P5E.4_K5.3_C5.2_[C-2G]_H5.3_A5.1_F5.1_T5.2 (ssRNA)
# RNA: UCUCUUGUACACUUAUUAUAUCUCUU
# B5: Id_ii_S1_P5E.4_K5.3_C5.2_[C-2T]_[T-1G]_H5.3_A5.1_F5.1_T5.2_[A12C] (ssRNA)
# RNA: UCUCUUUGACACUUAUUAUCUCUCUU
# B6: Ib_S1_P5E.1_K5.1_C5.1_H5.1_A5.1_F5.1_[T8C]_[A10T]_T5.1 (ssRNA)
# RNA: UCUCUUUGUAUUACUUUCUCUU
# B7: Id_ii_S1_P5E.4_K5.3_C5.2_[C-2T]_[T-1C]_H5.3_A5.1_F5.1_T5.2_[T11G]_[A12C] (ssRNA)
# RNA: UCUCUUUCACACUUAUUAGCUCUCUU
# B8: Id_ii_S1_P5E.4_K5.3_C5.2_[C-2T]_[T-1C]_H5.3_A5.1_F5.1_T5.2_[T11C]_[A12G] (ssRNA)
# RNA: UCUCUUUCACACUUAUUACGUCUCUU
# B9: Id_ii_S1_P5E.4_K5.3_C5.2_[C-2T]_[T-1C]_H5.3_A5.1_F5.1_T5.2_[T11C]_[A12C] (ssRNA)
# RNA: UCUCUUUCACACUUAUUACCUCUCUU
# B10: Id_ii_S1_P5E.4_K5.3_C5.2_[C-2T]_[T-1C]_H5.3_A5.1_F5.1_T5.2_[T11C]_[A12T] (ssRNA)
# RNA: UCUCUUUCACACUUAUUACUUCUCUU
# B11: Id_ii_S1_P5E.4_K5.3_C5.2_[C-2T]_[T-1C]_H5.3_A5.1_F5.1_T5.2_[T11C] (ssRNA)
# RNA: UCUCUUUCACACUUAUUACAUCUCUU
# B12: Id_ii_S1_P5E.4_K5.3_C5.2_[C-2T]_[T-1C]_H5.3_A5.1_F5.1_T5.2_[T11A]_[A12C] (ssRNA)
# RNA: UCUCUUUCACACUUAUUAACUCUCUU
# B13: Id_ii_S1_P5E.4_K5.3_C5.2_[C-2T]_[T-1C]_H5.3_A5.1_F5.1_T5.2_[T11A]_[A12T] (ssRNA)
# RNA: UCUCUUUCACACUUAUUAAUUCUCUU
# B14: Id_ii_S1_P5E.4_K5.3_C5.2_[C-2T]_[T-1C]_H5.3_A5.1_F5.1_T5.2_[T11A] (ssRNA)
# RNA: UCUCUUUCACACUUAUUAAAUCUCUU
# B15: Id_ii_S1_P5E.4_K5.3_C5.2_[C-2T]_[T-1C]_H5.3_A5.1_F5.1_T5.2_[A12G] (ssRNA)
# RNA: UCUCUUUCACACUUAUUAUGUCUCUU
# B16: Id_ii_S1_P5E.4_K5.3_C5.2_[C-2T]_[T-1C]_H5.3_A5.1_F5.1_T5.2_[A12C] (ssRNA)
# RNA: UCUCUUUCACACUUAUUAUCUCUCUU
# B17: Ia_S1_P5E.1_K5.1_C5.1_H5.1_A5.1_F5.1_[T9C]_T5.1 (ssRNA)
# RNA: UCUCUUUGUAUUAUCAUCUCUU
# B18: Ib_S1_P5E.1_K5.1_C5.1_H5.1_A5.1_F5.1_[T9G]_[A10G]_T5.1 (ssRNA)
# RNA: UCUCUUUGUAUUAUGGUCUCUU
# B19: Id_ii_S1_P5E.4_K5.3_C5.2_[C-2T]_[T-1C]_H5.3_A5.1_F5.1_T5.2_[A12T] (ssRNA)
# RNA: UCUCUUUCACACUUAUUAUUUCUCUU
# B20: Id_ii_S1_P5E.4_K5.3_C5.2_[C-2T]_[T-1C]_H5.3_A5.1_F5.1_T5.2 (ssRNA)
# RNA: UCUCUUUCACACUUAUUAUAUCUCUU
# B21: Id_ii_S1_P5E.4_K5.3_C5.2_[C-2T]_[T-1A]_H5.3_A5.1_F5.1_T5.2_[T11C]_[A12G] (ssRNA)
# RNA: UCUCUUUAACACUUAUUACGUCUCUU
# B22: Id_ii_S1_P5E.4_K5.3_C5.2_[C-2T]_[T-1A]_H5.3_A5.1_F5.1_T5.2_[T11C]_[A12C] (ssRNA)
# RNA: UCUCUUUAACACUUAUUACCUCUCUU
# B23: Id_ii_S1_P5E.4_K5.3_C5.2_[C-2T]_[T-1A]_H5.3_A5.1_F5.1_T5.2_[T11C]_[A12T] (ssRNA)
# RNA: UCUCUUUAACACUUAUUACUUCUCUU
# B24: Id_ii_S1_P5E.4_K5.3_C5.2_[C-2T]_[T-1A]_H5.3_A5.1_F5.1_T5.2_[T11C] (ssRNA)
# RNA: UCUCUUUAACACUUAUUACAUCUCUU
# B25: Id_ii_S1_P5E.4_K5.3_C5.2_[C-2T]_[T-1A]_H5.3_A5.1_F5.1_T5.2_[T11A]_[A12T] (ssRNA)
# RNA: UCUCUUUAACACUUAUUAAUUCUCUU
# B26: Id_ii_S1_P5E.4_K5.3_C5.2_[C-2T]_[T-1A]_H5.3_A5.1_F5.1_T5.2_[T11A] (ssRNA)
# RNA: UCUCUUUAACACUUAUUAAAUCUCUU
# B27: Id_ii_S1_P5E.4_K5.3_C5.2_[C-2T]_[T-1A]_H5.3_A5.1_F5.1_T5.2_[A12C] (ssRNA)
# RNA: UCUCUUUAACACUUAUUAUCUCUCUU
# B28: Id_ii_S1_P5E.4_K5.3_C5.2_[C-2T]_[T-1A]_H5.3_A5.1_F5.1_T5.2_[A12T] (ssRNA)
# RNA: UCUCUUUAACACUUAUUAUUUCUCUU
# B29: Ib_S1_P5E.1_K5.1_C5.1_H5.1_A5.1_F5.1_[T9G]_[A10C]_T5.1 (ssRNA)
# RNA: UCUCUUUGUAUUAUGCUCUCUU
# B30: Id_ii_S1_P5E.4_K5.3_C5.2_[C-2T]_[T-1A]_H5.3_A5.1_F5.1_T5.2 (ssRNA)
# RNA: UCUCUUUAACACUUAUUAUAUCUCUU
# B31: Id_ii_S1_P5E.4_K5.3_C5.2_[C-2T]_H5.3_A5.1_F5.1_T5.2_[T11C]_[A12C] (ssRNA)
# RNA: UCUCUUUUACACUUAUUACCUCUCUU
# Target: T1, PUF4 RNA-binding domain (Saccharomyces cerevisiae, UniProt P25339 537-888)
# T1 sequence: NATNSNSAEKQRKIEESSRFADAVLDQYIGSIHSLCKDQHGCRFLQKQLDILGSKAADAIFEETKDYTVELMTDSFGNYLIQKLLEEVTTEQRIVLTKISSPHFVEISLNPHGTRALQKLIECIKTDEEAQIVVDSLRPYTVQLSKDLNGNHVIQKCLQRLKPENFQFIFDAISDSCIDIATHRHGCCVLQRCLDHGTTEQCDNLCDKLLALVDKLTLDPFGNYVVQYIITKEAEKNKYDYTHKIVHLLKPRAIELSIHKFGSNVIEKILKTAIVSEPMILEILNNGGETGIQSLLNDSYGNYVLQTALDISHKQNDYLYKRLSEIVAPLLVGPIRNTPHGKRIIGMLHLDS
# Test: Mg; RNA-MaP; 20 mM Na-HEPES pH 7.4, 30 mM KOAc, 0.75 mM MgCl2, 0.1% Tween-20, 5% glycerol, 0.1 mg/mL BSA, 2 mM DTT; 25 C; 0.0125-409.6 nM protein
# Details: tags: N-His6-TEV cleaved; C-SNAP kept, Cy3B-labelled; label: tethered on chip by stalled RNA polymerase
row,Binder,Kd
1,B1,3.63 nM
2,B2,2.94 nM
3,B3,3.73 nM
4,B4,3.91 nM
5,B5,> 2300 nM
6,B6,44.6 nM
7,B7,> 2300 nM
8,B8,> 2300 nM
9,B9,> 2300 nM
10,B10,> 2300 nM
11,B11,> 2300 nM
12,B12,> 2300 nM
13,B13,> 2300 nM
14,B14,> 2300 nM
15,B15,> 2300 nM
16,B16,> 2300 nM

row,Binder,Kd
1,B17,21.9 nM
2,B18,7.8 nM
3,B19,> 2300 nM
4,B20,> 2300 nM
5,B21,> 2300 nM
6,B22,> 2300 nM
7,B23,> 2300 nM
8,B24,> 2300 nM
9,B25,> 2300 nM
10,B26,> 2300 nM
11,B27,> 2300 nM
12,B28,> 2300 nM
13,B29,15.2 nM
14,B30,> 2300 nM
15,B31,> 2300 nM
